A short description of data set [1]: folding stability dG unfold (combined trypsin and chymotrypsin); higher = more stable. The method, boiled down:
(§1)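 Sequencing followed digestion of designed mini-proteins with trypsin and chymotrypsin, each at 11 concentrations in threefold dilutions together with a no-protease condition. The mini-proteins were under 80 residues, had no cysteine, sat in a PA-tagged cDNA display construct, and were kept only if AlphaFold2 dimer inter-PAE was above 15. From the counts, Bayesian fitting gave K50, and unfolding free energy was derived against a sequence-predicted unfolded-state K50 and a shared folded-state K50, per protease or combined.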

A short description of data set [2]: folding stability dG unfold from trypsin proteolysis; higher = more stable. The method, boiled down:
as §1

The nature of data set [3]: folding stability dG unfold from chymotrypsin proteolysis; higher = more stable. In a few lines:
as §1

Data on 18 sequences can be found in the supplement of paper PMC12764529.

± gives the half width of the 95% confidence interval.

Turning to “SAGGSAPDDVEVEIKNIHYNPNWGYIMITIKVDGPVDSIEIELPNGWEISVMRDKDGTMTIMFPFPSAGGSA [r15_736_TrROS]”, the “folding stability dG unfold” value was 3.15 ± 0.32 kcal/mol in data set [1], 2.43 ± 0.1 kcal/mol in data set [2] and 3.29 ± 0.18 kcal/mol in data set [3].
For the sequence “SAGGSAPEDNYVVLIFIDISIEWKPKYDEDNGKNRIEFEWKLEIDIPTIVLPPDDPEAKDLLEDLLSAGGSA [r15_470_TrROS]”, the “folding stability dG unfold” value was found to be 2.94 ± 0.12 kcal/mol in data set [1], 2.29 ± 0.067 kcal/mol in data set [2] and 3.35 ± 0.14 kcal/mol in data set [3].
For “SAGGSAPEIPTDALVRVRDPNSDKWYEATVLEARKLPGGELVYLIRLTKDGNEELVPTDLATVELKSAGGSA [r15_62_JUSTAS]” the same measures were 1.29 ± 0.098 kcal/mol, 1.05 ± 0.08 kcal/mol and 1.53 ± 0.12 kcal/mol.
On to “SAGGSAPIRIIKDPEKGTIMIRVPGPITVNQELKLRDENGKPWEIKNVEVERVGGRLIITMKVEPASAGGSA [r15_838_TrROS]”, for which the entries for the “folding stability dG unfold” value in data set [1], in data set [2] and in data set [3] were 1.29 ± 0.11 kcal/mol, 1.19 ± 0.052 kcal/mol and 1.24 ± 0.19 kcal/mol, respectively.
Take “SAGGSAPKIRVEIEIDPDNGTIKLEVQHDGKPVFEMTMRIDPNGKIKEMKFTFYVDPDNGKLEIMMSAGGSA [r15_770_TrROS]”: the results for the “folding stability dG unfold” value in data set [1], in data set [2] and in data set [3] were 4.43 ± 0.17 kcal/mol, 3.68 ± 0.25 kcal/mol and 4.59 ± 0.26 kcal/mol, respectively.
As for “SAGGSAPLPAREFADEIMKKSPGPVEITVVFKEPDEYYVAKITMNPNNGKPQIKVERIPPEDLKKLSAGGSA [r15_156_TrROS]”, the “folding stability dG unfold” value was 0.467 ± 0.23 kcal/mol in data set [1], 0.42 ± 0.065 kcal/mol in data set [2] and 0.626 ± 0.23 kcal/mol in data set [3].
As for “SAGGSAPNKWKTVDIEFMFPPDNLEEFVDEISKLPGIKASIEPVEYDPEGMYWMKIDITIPPGMKISAGGSA [r15_441_TrROS]”, the “folding stability dG unfold” value in data set [1] came out at 1.64 ± 0.21 kcal/mol; in data set [2] it was 1.16 ± 0.048 kcal/mol; in data set [3] it was 1.74 ± 0.12 kcal/mol.
As to “SAGGSAPPDTPLATIEFTLTPPDGSTTPTTITVPPSVVEEAAAAQKAAFEAAGWATTVTVATTTPLSAGGSA [r2_274_JUSTAS]”, the “folding stability dG unfold” value stood at 0.526 ± 0.034 kcal/mol in data set [1], 0.676 ± 0.015 kcal/mol in data set [2] and 0.246 ± 0.1 kcal/mol in data set [3].
Consider “SAGGSAPPFYIAINPDKPKSIHIMPPGSPDMRDDDGSKVIPFRTEEEFLKLIQEIKKKGVDKIHIYSAGGSA [r15_1004_TrROS]”, for which the “folding stability dG unfold” value in data set [1] is 0.413 ± 0.24 kcal/mol; in data set [2], -0.0618 ± 0.18 kcal/mol; in data set [3], 0.744 ± 0.24 kcal/mol.
On to “SAGGSAPPIEIEIDKWERDPENGYVYATVKIKLPGKKIEIPIWMDDPPGQAENQVKMLAENIARQLSAGGSA [r15_979_TrROS]”, for which the “folding stability dG unfold” value worked out at 1.11 ± 0.13 kcal/mol in data set [1], 0.807 ± 0.082 kcal/mol in data set [2] and 1.39 ± 0.11 kcal/mol in data set [3].
Consider “SAGGSAPPKRRERIIQIPIKMKPGQTADEMVDNIADWIMDLLPPDMRIEIEVEYHPENGWIMVKIESAGGSA [r15_739_TrROS]”, for which the results for the “folding stability dG unfold” value in data set [1], in data set [2] and in data set [3] were 1.63 ± 0.3 kcal/mol, 1.21 ± 0.089 kcal/mol and 2.09 ± 0.084 kcal/mol, respectively.
Consider “SAGGSAPPNLQIDIQINPGHGYIEVSVQIPGRHVKASAKLTEPGQLKMDIEFPGNGKEIDITIPISSAGGSA [r15_837_TrROS]”, for which the “folding stability dG unfold” value in data set [1] was found to be 2.37 ± 0.15 kcal/mol; in data set [2], 2.04 ± 0.14 kcal/mol; in data set [3] it was 2.61 ± 0.072 kcal/mol.
Turning to “SAGGSAPPPGSTQVIVVEKRDAPPEEAAQEIADEIKEKYPNTSVEVQEEEVPPGEPVVRVTVYIPPSAGGSA [r15_916_JUSTAS]”, the “folding stability dG unfold” value in data set [1] amounted to 0.559 ± 0.48 kcal/mol; in data set [2], 0.845 ± 0.14 kcal/mol; in data set [3], 0.945 ± 0.15 kcal/mol.
For “SAGGSAPPPNTIPIRVKIEDKNGKWETITFPVKSGDDAKDFLNDNFPNVKVEYDPGAGWVTIEVPKSAGGSA [r15_313_TrROS]”, the “folding stability dG unfold” value is -0.0942 ± 0.44 kcal/mol in data set [1], -0.868 ± 0.29 kcal/mol in data set [2] and 0.2 ± 0.094 kcal/mol in data set [3].
For the sequence “SAGGSAPRIRVHFWNPNTGQWHHIPVERLKKAIDKNPPGEELEFPIPGYPVKVQVEPDDGTIWIRMSAGGSA [r15_350_TrROS]”, the “folding stability dG unfold” value in data set [1] came to 1.19 ± 0.16 kcal/mol; in data set [2], 1.01 ± 0.061 kcal/mol; in data set [3], 1.17 ± 0.25 kcal/mol.
For “SAGGSAPRVVRVETVTLTPPADSTVTARLLRLETPEGPRYVLAVRDPSTPVVVARPVPEGATLLEESAGGSA [r15_75_TrMRF]” the same measures were -0.237 ± 0.11 kcal/mol, -0.581 ± 0.23 kcal/mol and -0.124 ± 0.1 kcal/mol.
As to “SAGGSAPVVEYEFVDPGNGRKVKIEVYPHPDGNYQMSIEVYDPGKPVEKIPFWMPPGEMPIEDLLKSAGGSA [r15_147_TrROS]”, the figures for the “folding stability dG unfold” value in data set [1], in data set [2] and in data set [3] were 0.565 ± 0.13 kcal/mol, 0.528 ± 0.059 kcal/mol and 0.565 ± 0.24 kcal/mol, respectively.
“SAGGSAPWRPITITIPGSWEEIKELAKKFVNDGNIRDVEVEPVPDPGYYKVTVWVRDPNGNWYLVFSAGGSA [r15_177_TrROS]”: the “folding stability dG unfold” value is 2.9 ± 0.2 kcal/mol in data set [1], 2.23 ± 0.16 kcal/mol in data set [2] and 3.204 ± 0.031 kcal/mol in data set [3].
